B1: Dianthus superbus PCY1-c250 (recombinant) (protein)
chain: MASCGFTKPLHYPTARRDETVVDDYFGLKVADPYRWLEDRDSEETKKFVEDQVKFTDSVLEECELIGKVKQKIIDYVSFPRWSVPLRRANKYFHFYNSGLQSQNVYRMQDGLDGKPEVICDPNLREDGRTGLSVYSVSEDAKYFAFGIAEGFTEWLTIRVMRTEDRSMLPDCLTEVKFTTVHWTHDNKGFFYCAYPPLEEGQDHMVHASISQEARYHYLGTDQSEDILCWKDPENPTHHFRSYFTDDGKYFVLYILEGCDKKNKVYCLDLTKLPNGPESLRGREGSAPFIKLVDSFDASYTVIANDDSVFTLLTDKDAKRCKLVRVDLNNPSVWTDVIPESKDLLESAHAVNGNQLLLRYLRDVKHVLELRDLESGSLLHSIPIDIGAVDGINARRGDSIVFFRFTSILTPGIIYQCDLKNDPTQLNIFRESLVPGFDRSEFEVKQVFVPGKDGTKIPAFIAARKGISLDGSHPCEMHGYGGYGHNMMPTFSASRLVFLKHLGGVFCLANIRGGGEYGVDWHKAGARENKQTSFDDFISSAEFLVSSGYSAPKKICIEGGSNGGLLIAVCITQRPDLFGCAEPNCGPMDMLRFHKFTLGYLWTDEYGNPDNEEEFNWLIKYSPLHNVRRPWEQPGHEQTQYPATMIITADHDDRVVPMHSYKMIATMQHVLCTSLENSPQKYPIICRIQRKASHYGRSTMVQIAEVADRYGFMAKALNATWTD
B2: Dianthus superbus PCY1-c1141 (recombinant) (protein)
chain: MAVSCGFTKTLHYPPVRRDETVVDDYFGLKIADPYRWLEDLNSEETKKFVDDQVKFTESVLEECELIGKVKQKIIDYVSFPRWSVPLRRANKYFHFYNSGLQSQNVYRMQDGLDGKPEVVYDPNLREGGRTGLTLYSVSEDANYFAFGIAEGFTEWLTIRVMRIEDRSMLPDCITGVKHSGIHWTHDNKGFFYCPYPPLEEGQDLMIHPSMSQEVRYHFIGTDQSEDILCWKDTVNPTHHLKSYFTDDGKYFVLYILEGCNNMNKVYCLDLTELPNGPESLRGREGSAPFIKLVDSFDALYTAIANDGSVFTFLTDKDATRRKLVRVDLNNPSVWTDVLPESKDLLESAHAVNGNQLLIRYLSDVKHILELRDLESGSLLHRIPIDIGAVDGTINARRGDSVVFFKFTSILTPSIIYQCDLKNDPPQLKIFRESVVPGFDRSEFEVKQLFAPSKDGTMIPTFVAARKGISLDGSHPCEMHGYGAYGQCMMPTFSASRLVFLKHLGGVFCLANIRGGGEYGVEWHKAGARENKQNSYDDFIASAEFLVSSGYTAPKKICIEGGSNGGLLIAVCITQRPDLFGCAEPNCGPMDMIRFHHFTQGYVVMSEYGSPDKEEEFNWLIKYSPLHNVRRPWEQPGHEQTQYPATMIITADHDDRVVPFHSYKMIATMQHVLCTSLENSPQKFPIICRIQRNASHYGRATMVQIAEVADRYGFMAKALNATWTD
B3: Silene vulgaris PCY1-c150 (recombinant) (protein)
chain: MASSAFSKPLNYPPVRRDETVVNDYFGVKVADPYRWLEDQEGEETIEFVDNQVKLADSVLEECELRDKIKQKITDLVNFPRCGVPFKRADKYFHFYNSGLQAQNVLHMQDDLDGKPEVLYDPNLREGGRSGLHQYAVSEDAKYLAFGINSGFSEWLTIKVMRIEDRSVLPDSLSWVKFSGIHWTHDSKGFFFSPYPPATEGLEVGMKTNSSFNQELRYHFLGTDESEDVLCWRDPENPTHHLKSDLTADGKYLLLYISAGCDATNKVYYMDLTTLPNGLEGLRGGKDLLPFKRLIDEFDATYTAIANDGSVFTFLTNKDAPRNKIVRVDLNNPDIWTEVIPESKKDVLESAHAVNGNQLLVRYLSDVKHILEVRDLESGSLLHRLPVDLGVIDGITARPQDSVVFFKFTSFLTPTIIYQCDLKEDSPQLKIFRESVVPEFDRSEFEVKQVFVSAKDGTKIPMFIVARKGISLDGSHPCELHGYGGFSISIKPFFSASRIVILKHLDAVFCVANIRGGGEYGEEWHQAGWREKKQIVFDDFISSAEYLVSSGYTQPQKLSIEGGSNGGLLVAACINQRPDLFGCAQANCGVMDMLRFHKFTLGYLWTSDYGCSEKEEDFNWLIKYSPIHNVRRPWEHSKNPQLQYPAVMILTADHDDRVVPLHSFKLLATLQHVLCTSLEDSPQKNPIIARIERKASHCGRATMKQIDEAADRYAFMAKALRATWTD

Legend:
[1] = target: T1, Presegetalin A1[14,32]V15A
T1 chain: GAPVWAFQAKDVENASAPV

[2] = target: T2, Presegetalin A1[14,32]W18A
T2 chain: GVPVAAFQAKDVENASAPV

[3] = target: T3, Presegetalin A1[14,32]G14A
T3 chain: AVPVWAFQAKDVENASAPV

[4] = target: T4, Presegetalin A1[14,32]A19V
T4 chain: GVPVWVFQAKDVENASAPV

Presegetalin A1[14,32] = target: T5, Presegetalin A1[14,32]
T5 chain: GVPVWAFQAKDVENASAPV

[5] = target: T6, Presegetalin A1[14,32]P16A
T6 chain: GVAVWAFQAKDVENASAPV

[6] = target: T7, Presegetalin A1[14,32]V17A
T7 chain: GVPAWAFQAKDVENASAPV

[7] = target: T8, Presegetalin A1[14,32] P16p W18a
T8 chain: GVPVAAFQAKDVENASAPV

[8] = target: T9, Presegetalin A1[14,32] P16p W18A
T9 chain: GVPVAAFQAKDVENASAPV

Protein | activity on alanine scan mutant (LC/MS) [1] | cyclic peptide product (LC/MS) [2] | cyclic peptide product (LC/MS) [3] | activity on alanine scan mutant (LC/MS) [4] | production of segetalin A (LC/MS) (Presegetalin A1[14,32]) | activity on alanine scan mutant (LC/MS) [5] | activity on alanine scan mutant (LC/MS) [6] | cyclic peptide product (LC/MS, MS/MS) [7] | cyclization (LC/MS) [7] | relative activity (LC/MS) [7] | cyclic peptide product (LC/MS, MS/MS) [8]
B1 | D. superbus PCY1-c250 activity was comparable to that of S. vaccaria PCY1 | D. superbus PCY1-c250 appeared to produce relatively more cyclic peptide than did S. vaccaria PCY1 from No. 11 | there was no detectable cyclic peptide made from No. 7 by D. superbus PCY1-c250 | D. superbus PCY1-c250 activity was comparable to that of S. vaccaria PCY1 | show strong enzymatic activity ... similar to that of S. vaccaria PCY1 | D. superbus PCY1-c250 activity was comparable to that of S. vaccaria PCY1 | D. superbus PCY1-c250 activity was comparable to that of S. vaccaria PCY1 | – | – | – | –
B2 | – | – | – | – | show strong enzymatic activity ... similar to that of S. vaccaria PCY1 | – | – | S. vaccaria PCY1 and D. superbus PCY1-c1141 made cyclic peptides from both No. 31 and No. 32 | also demonstrated the ability to cyclize alternating D- and L-amino acid polypeptide substrates (FIG. 12a) in a similar manner to S. vaccaria PCY1 | D. superbus PCY1-c1141 was relatively more active on No. 32 than was S. vaccaria PCY1 | S. vaccaria PCY1 and D. superbus PCY1-c1141 made cyclic peptides from both No. 31 and No. 32
B3 | – | – | – | – | has the same enzymatic activity as that of S. vaccaria PCY1, (FIG. 7d) albeit weaker than that of S. vaccaria PCY1 for production of segetalin A | – | – | – | – | – | –

Source: patent US20140363844
